Changes are numbered by the printed parent chain. Names and notes keep the numbering of the source.

Our source for the Kd values is PMC9995517 (2023).

For the assay, the target named is F-actin (preassembled filaments of rabbit skeletal muscle actin) (rabbit, UniProt P68135 1-377).

B1: tyrosyl-tRNA synthetase E196K (CMT-causing mutant), recombinant Xpress-6xHis tagged (His-YARS1^E196K) (enzyme)
chain: MGDAPSPEEKLHLITRNLQEVLGEEKLKEILKERELKIYWGTATTGKPHVAYFVPMSKIADFLKAGCEVTILFADLHAYLDNMKAPWELLELRVSYYENVIKAMLESIGVPLEKLKFIKGTDYQLSKEYTLDVYRLSSVVTQHDSKKAGAEVVKQVEHPLLSGLLYPGLQALDEEYLKVDAQFGGIDQRKIFTFAKKYLPALGYSKRVHLMNPMVPGLTGSKMSSSEEESKIDLLDRKEDVKKKLKKAFCEPGNVENNGVLSFIKHVLFPLKSEFVILRDEKWGGNKTYTAYVDLEKDFAAEVVHPGDLKNSVEVALNKLLDPIREKFNTPALKKLASAAYPDPSKQKPMAKGPAKNSEPEEVIPSRLDIRVGKIITVEKHPDADSLYVEKIDVGEAEPRTVVSGLVQFVPKEELQDRLVVVLCNLKPQKMRGVESQGMLLCASIEGINRQVEPLDPPAGSAPGEHVFVKGYEKGQPDEELKPKKKVFEKLQADFKISEECIAQWKQTNFMTKLGSISCKSLKGGNIS
Take B1: the Kd (usually the equilibrium constant for the complex coming apart) was determined as 800 nM.

B2: tyrosyl-tRNA synthetase, wild type, recombinant Xpress-6xHis tagged (His-YARS1^WT) (enzyme)
chain: B1 chain with K196E
As for B2, the Kd was determined as 750 nM.
